Data taken from article doi:10.1101/2020.06.02.095570 (bioRxiv, 2020).

B1: dehydrodolichyl diphosphate synthase (DHDDS), full-length human (enzyme)
chain: MSWIKEGELSLWERFCANIIKAGPMPKHIAFIMDGNRRYAKKCQVERQEGHSQGFNKLAETLRWCLNLGILEVTVYAFSIENFKRSKSEVDGLMDLARQKFSRLMEEKEKLQKHGVCIRVLGDLHLLPLDLQELIAQAVQATKNYNKCFLNVCFAYTSRHEISNAVREMAWGVEQGLLDPSDISESLLDKCLYTNRSPHPDILIRTSGEVRLSDFLLWQTSHSCLVFQPVLWPEYTFWNLFEAILQFQMNHSVLQKARDMYAEERKRQQLERDQATVTEQLLREGLQASGDAQLRRTRLHKLSARREERVQGFLQALELKRADWLARLGTASA
B2: sNgBRΔ167*-175* (soluble Nogo-B receptor, residues 73*-293*, loop 167-175 removed) (domain or fragment)
chain: RGGSCLAAAHHRMRWRADGRSLEKLPVHMGLVITEVEQEPSFSDIASLVVWCMAVGISYISVYDHQGIFKRNNSRLMDEILKQQQELLGLDCSKDKDDQVLNCHLAVKVLSPEDGKADIVRAAQDFCQLVAQKQKRPTDLDVDTLASLLSSNGCPDPDLVLKFGPVDSTLGFLPWHIRLTEIVSLPSHLNISYEDFFSALRQYAACEQRLGK

Columns and labels:
cross-linking = molecular target: the molecule itself; assay: cross-linking
[1] = molecular target: B1; assay: crystal structure

| binding result [1] | Binder | binding result (cross-linking) |
| --- | --- | --- |
|  | B1 | binds |
| binds | B2 |  |
